Test results reported in the supplement of paper PMC9112550, “Optimization of the antimicrobial peptide Bac7 by deep mutational scanning” (BMC Biology, 2022).

Test system: Escherichia coli TOP10
Assay: shrunken log2 fold change of peptide-encoding DNA abundance (4.5 h post-induction vs induction); higher = less antimicrobial activity (less host growth inhibition)
Settings: time post-induction: 4.5 h; library: site-saturation at positions 5, 18, 19, 20
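Note: peptides expressed intracellularly from a pBAD plasmid library in pooled LB shake-flask culture, induced with 0.3% L-arabinose, DNA abundance read by NGS, three biological replicates, DESeq2 with apeglm shrinkage.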

Sequence	shrunken log2 fold change
RRIRGRPPRLPRPRPRPCIHPRP	0.00637
RRIRDRPPRLPRPRPRPTREPRP	1.46
RRIRTRPPRLPRPRPRPWMHPRP	0.032
RRIRARPPRLPRPRPRPHPHPRP	0.322
RRIRQRPPRLPRPRPRPEEIPRP	0.0447
RRIRKRPPRLPRPRPRPREAPRP	1.44
RRIRTRPPRLPRPRPRPLQWPRP	0.206
RRIRSRPPRLPRPRPRPKTVPRP	0.0369
RRIRSRPPRLPRPRPRPCDNPRP	-0.165
RRIRKRPPRLPRPRPRPSKYPRP	-0.00772
RRIRMRPPRLPRPRPRPIFPPRP	0.229
RRIRHRPPRLPRPRPRPATRPRP	0.0209
RRIRVRPPRLPRPRPRPSMRPRP	0.477
RRIRERPPRLPRPRPRPSCDPRP	-0.281
RRIRNRPPRLPRPRPRPVLSPRP	0.0114
RRIRLRPPRLPRPRPRPIMAPRP	0.0391
RRIRPRPPRLPRPRPRPQLTPRP	-0.221
RRIRVRPPRLPRPRPRPDVEPRP	0.372
RRIRTRPPRLPRPRPRPRIHPRP	0.0773
RRIRVRPPRLPRPRPRPEDDPRP	-0.17
RRIRYRPPRLPRPRPRPVKHPRP	-0.122
RRIRVRPPRLPRPRPRPVMLPRP	-0.0602
RRIRVRPPRLPRPRPRPWVKPRP	-0.235
RRIRYRPPRLPRPRPRPQCEPRP	-0.0652
RRIRNRPPRLPRPRPRPMGAPRP	0.115

Sequence	shrunken log2 fold change
RRIRPRPPRLPRPRPRPVAQPRP	0.123
RRIRVRPPRLPRPRPRPKGAPRP	0.553
RRIRVRPPRLPRPRPRPFPRPRP	0.0135
RRIRHRPPRLPRPRPRPAWDPRP	-0.0216
RRIRARPPRLPRPRPRPFKLPRP	-0.39
RRIRARPPRLPRPRPRPDSCPRP	0.156
RRIRQRPPRLPRPRPRPVQSPRP	0.0508
RRIRTRPPRLPRPRPRPSQYPRP	-0.142
RRIRARPPRLPRPRPRPTTNPRP	0.389
RRIRKRPPRLPRPRPRPVPNPRP	-0.00404
RRIRPRPPRLPRPRPRPKVDPRP	0.0884
RRIRKRPPRLPRPRPRPRPTPRP	1.04
RRIRARPPRLPRPRPRPVGQPRP	0.225
RRIRGRPPRLPRPRPRPPGYPRP	0.737
RRIRFRPPRLPRPRPRPPYHPRP	-0.454
RRIRARPPRLPRPRPRPNCQPRP	0.267
RRIRIRPPRLPRPRPRPSEPPRP	-0.192
RRIRTRPPRLPRPRPRPIVDPRP	0.0147
RRIRWRPPRLPRPRPRPVYRPRP	-0.0858
RRIRVRPPRLPRPRPRPFISPRP	-0.11
RRIRMRPPRLPRPRPRPVIRPRP	0.00204
RRIRCRPPRLPRPRPRPNYWPRP	-0.326
RRIRPRPPRLPRPRPRPKNCPRP	-0.238
RRIRDRPPRLPRPRPRPHAEPRP	0.0887
RRIRARPPRLPRPRPRPEWPPRP	0.591

Sequence	shrunken log2 fold change
RRIRSRPPRLPRPRPRPIADPRP	0.191
RRIRGRPPRLPRPRPRPDCQPRP	0.662
RRIRARPPRLPRPRPRPGRHPRP	0.159
RRIRPRPPRLPRPRPRPFPYPRP	-0.0798
RRIRDRPPRLPRPRPRPCVAPRP	0.633
RRIRARPPRLPRPRPRPDIPPRP	-0.192
RRIRMRPPRLPRPRPRPGKAPRP	0.153
RRIRHRPPRLPRPRPRPVDEPRP	0.184
RRIRMRPPRLPRPRPRPVRTPRP	0.673
RRIRMRPPRLPRPRPRPEWTPRP	0.749
RRIRRRPPRLPRPRPRPAAVPRP	0.462
RRIRSRPPRLPRPRPRPKCCPRP	-0.0585
RRIRARPPRLPRPRPRPTMPPRP	0.364
RRIRWRPPRLPRPRPRPWIEPRP	0.0929
RRIRARPPRLPRPRPRPFKEPRP	-0.0239
RRIRIRPPRLPRPRPRPFPNPRP	-0.939
RRIRRRPPRLPRPRPRPPFAPRP	0.739
RRIRFRPPRLPRPRPRPPDIPRP	-0.329
RRIRFRPPRLPRPRPRPALGPRP	0.423
RRIRIRPPRLPRPRPRPFGRPRP	-0.0138
RRIRCRPPRLPRPRPRPHTKPRP	-0.309
RRIRVRPPRLPRPRPRPMTQPRP	0.181
RRIRIRPPRLPRPRPRPHRPPRP	-0.166
RRIRQRPPRLPRPRPRPLDYPRP	0.13
RRIRDRPPRLPRPRPRPPVWPRP	1.04

Sequence	shrunken log2 fold change
RRIRWRPPRLPRPRPRPMLCPRP	0.216
RRIRDRPPRLPRPRPRPSQHPRP	-0.343
RRIRDRPPRLPRPRPRPICQPRP	0.0244
RRIRYRPPRLPRPRPRPPRIPRP	-0.0175
RRIRRRPPRLPRPRPRPTEKPRP	0.155
RRIRNRPPRLPRPRPRPYQGPRP	-0.00804
RRIRVRPPRLPRPRPRPSDCPRP	0.234
RRIRVRPPRLPRPRPRPVMSPRP	-0.213
RRIRDRPPRLPRPRPRPSLVPRP	-0.0908
RRIRHRPPRLPRPRPRPERMPRP	-0.0151
RRIRSRPPRLPRPRPRPMEKPRP	-0.0205
RRIRPRPPRLPRPRPRPSEGPRP	-0.148
RRIRNRPPRLPRPRPRPYCQPRP	-0.358
RRIRTRPPRLPRPRPRPQWPPRP	0.0505
RRIRPRPPRLPRPRPRPFRHPRP	-0.191
RRIRRRPPRLPRPRPRPQVAPRP	0.157
RRIRLRPPRLPRPRPRPYATPRP	-0.246
RRIRERPPRLPRPRPRPPLIPRP	-0.435
RRIRRRPPRLPRPRPRPRNRPRP	-0.0263
RRIRRRPPRLPRPRPRPGCKPRP	0.12
RRIRPRPPRLPRPRPRPSDRPRP	-0.00705
RRIRSRPPRLPRPRPRPIEQPRP	-0.0141
RRIRYRPPRLPRPRPRPFCMPRP	-0.604
RRIRKRPPRLPRPRPRPSRYPRP	0.086
RRIRCRPPRLPRPRPRPPAHPRP	2.07

Sequence	shrunken log2 fold change
RRIRQRPPRLPRPRPRPHENPRP	-0.0313
RRIRPRPPRLPRPRPRPTEPPRP	0.179
RRIRLRPPRLPRPRPRPQELPRP	-0.0432
RRIRFRPPRLPRPRPRPILAPRP	0.0156
RRIRDRPPRLPRPRPRPVLMPRP	-0.134
RRIRERPPRLPRPRPRPCDMPRP	-0.0119
RRIRYRPPRLPRPRPRPEHDPRP	0.0965
RRIRQRPPRLPRPRPRPRYLPRP	-0.422
RRIRSRPPRLPRPRPRPRVPPRP	0.692
RRIRPRPPRLPRPRPRPAGLPRP	0.279
RRIRERPPRLPRPRPRPNCKPRP	-0.832
RRIRNRPPRLPRPRPRPLWYPRP	-0.619
RRIRPRPPRLPRPRPRPFWRPRP	0.0788
RRIRCRPPRLPRPRPRPSYWPRP	-0.71
RRIRHRPPRLPRPRPRPMYDPRP	0.0149
RRIRMRPPRLPRPRPRPNYLPRP	-0.212
RRIRTRPPRLPRPRPRPGPWPRP	0.215
RRIRIRPPRLPRPRPRPTGRPRP	-0.0536
RRIRGRPPRLPRPRPRPYLSPRP	-0.0512
RRIRQRPPRLPRPRPRPWFTPRP	-0.356
RRIRYRPPRLPRPRPRPYCRPRP	-0.377
RRIRMRPPRLPRPRPRPDNLPRP	-0.205
RRIRQRPPRLPRPRPRPQCTPRP	-0.0165
RRIRRRPPRLPRPRPRPRSHPRP	-0.033
RRIRNRPPRLPRPRPRPYADPRP	-0.161

Sequence	shrunken log2 fold change
RRIRGRPPRLPRPRPRPKALPRP	0.0797
RRIRIRPPRLPRPRPRPPLHPRP	0.0232
RRIRLRPPRLPRPRPRPMHWPRP	0.0928
RRIRVRPPRLPRPRPRPGLLPRP	-0.146
RRIRDRPPRLPRPRPRPYVWPRP	-0.579
RRIRGRPPRLPRPRPRPHKVPRP	0.184
RRIRKRPPRLPRPRPRPTLVPRP	0.528
RRIRMRPPRLPRPRPRPWHPPRP	-0.297
RRIRPRPPRLPRPRPRPSAWPRP	0.368
RRIRWRPPRLPRPRPRPSREPRP	0.807
RRIRRRPPRLPRPRPRPAMPPRP	0.396
RRIRTRPPRLPRPRPRPNGDPRP	-0.0598
RRIRERPPRLPRPRPRPDEVPRP	0.0489
RRIRKRPPRLPRPRPRPYTWPRP	-0.231
RRIRMRPPRLPRPRPRPRVLPRP	1.12
RRIRHRPPRLPRPRPRPNEFPRP	-0.00664
RRIRHRPPRLPRPRPRPLTRPRP	0.0261
RRIRSRPPRLPRPRPRPNWYPRP	-0.382
RRIRWRPPRLPRPRPRPMYDPRP	-0.158
RRIRSRPPRLPRPRPRPAYSPRP	-0.0975
RRIRHRPPRLPRPRPRPNIMPRP	-0.596
RRIRIRPPRLPRPRPRPMMKPRP	-0.166
RRIRHRPPRLPRPRPRPNAKPRP	-0.117
RRIRARPPRLPRPRPRPTIIPRP	-0.0837
RRIRLRPPRLPRPRPRPRIRPRP	0.103
